# Changes are numbered by the printed parent chain.
# B1: A7 (antibody, V domains shown)
# VH: QVQLVDSGGGVVQPGRSLRLSCAASGFTFISYGMHWVRQAPGKGLEWVAVIWYDGSTEYYADSVKGRFTISRDNSKNTLYLQMNSLRAEDTAVYYCARERQWLYHYGMDVWGQGTTVTVSS
# VL: DIQMTQSPSSLSASVGDRVTITCRAGQGIRNDLVWYQQKPGKAPKRLIYAASSLQSGVPSRFSGSGSGTEFTLTISSLQPEDFATYYCLQHNTYPFTFGPGTKVDIK
# notes: also called antibody A7; L7H7
# B2: A8 (antibody, V domains shown)
# VH: QVQLQESGPGLVKPSETLSLTCTVSGGSINSFYWSWIRQPPGKGLEWIGYIYYSGSTNYNPSLKRRVTISVDTSKTQFSLKLSSVTAADTAVYYCARDSIAAPFDYWGQGTLVTVSS
# VL: DIVMTQSPDSLAVSLGERATITCKSSQSILYSSNNKKYLVWYQQKPGQPPKLIIYWTSMRESGVPDRFSGSGSGTDFTLTISSLQAEDVAVYYCQQYYSTPWTFGQGTKVEIK
# notes: also called antibody A8; L8H8
# B3: A5 (antibody, V domains shown)
# VH: B2 VH with R65S
# VL: B2 VL with S82N
# notes: also called antibody A5; L5H5
# B4: A13 (antibody, V domains shown)
# VH: QVQLVQSGAEVKKPGASVKVSCKASGYTFTSYGISWVRQAPGQGLERMGWISAYNGNTNYAQKFQGRVTMTTDTSTTTAYMELRSLRSDDTAVYYCARDQDYYDSSGWGHWGQGTLVTVSS
# VL: SYELTQPPSVSVSPGQTASITCSGDKLGDKYVCWYQQKPGQSPELVIYLDNKRPSGIPERFSGSNSGNTATLTISGTQAMDEADYYCQAWDSSTVFGGGTKLTVL
# notes: also called antibody A13; L13H13
# B5: A14 (antibody, V domains shown)
# VH: B4 VH with A24T, R47W, A53P, T74K, T77S, G109D, H110P
# VL: B4 VL with V32A, C33F, E44V, I47F, L49H, N51T, Y86H
# notes: also called antibody A14; L14H14
# B6: anti-activin A monoclonal antibody A2 (antibody, human IgG2, kappa, V domains shown)
# VH: QVQLVESGGGVVQPGRSLRLSCAASGFTFSSYGMHWVRQAPGKGLEWVAVIWYDGSNKYHADSVKGRFTISRDNSKNTLYLQVNSLRAEDTAVYYCVRSRNWNYDNYYYGLDVWGQGTTVTVSS
# VL: DIQMTQSPSSLSASVGDRVTITCRASQGIRNNLGWYQQKPGKAPKRLIYAASSLQSGVPSRFSGSGSGTEFTLTISSLQPEDFTTYYCLQHNSYPWTFGQGTKVEIKR
# notes: Fully human antibody from XenoMouse hybridoma; also called L2H2
# B7: anti-activin A monoclonal antibody A3 (antibody, human IgG2, kappa, V domains shown)
# VH: EVQLVESGGGLVQPGGSLRLSCAASGFTFSSYWMSWVRQAPGKGLECVANIKQDGSEEYYVDSVKGRFTISRDNAKNSLYLQMNSLRAEDTAVYYCARGSSSWYYYNYGMDVWGQGTTVTVSS
# VL: B6 VL with N32D, T84A, L89R, H91Q, S93T, W96L, Q100G
# notes: Fully human antibody from XenoMouse hybridoma; also called L3H3
# B8: A9 (antibody, V domains shown)
# VH: B6 VH
# VL: B1 VL with G26S, D32N, V34G, A84T, T93S, F96W, P100Q, D105E
# notes: also called antibody A9; L9H9
# B9: A6 (antibody, V domains shown)
# VH: QVQLQQWGAGLLKPSETLSLTCAVYGGSFSAYYWSWIRQPPGKGLEWIGEINHSGGTNYNPSLKSRVTISVDTSKNQFSLKLSSVTAADTAVYYCARVQWLELAYFDYWGQGTLVTVSS
# VL: DIQMTQSPSSLSASVGDRVTITCRASQSISNYLNWYQQRPGKAPKLLIYATSSLQSGVPSRFSGSGSGTDFTLTISSLQPEDFVSYYCQQSYSISPTFGGGTKVENK
# notes: also called antibody A6; L6H6
# Experiments:
# [1] = target: T1, recombinant human activin A (mature) (human, UniProt P08476 311-426); experiment: Biacore premix competition: 2 nM rhActivinA + 20 nM antibody over immobilized AKA1
# T1 construct: also called r-HuActivin A; rhActivin A
# T1 sequence: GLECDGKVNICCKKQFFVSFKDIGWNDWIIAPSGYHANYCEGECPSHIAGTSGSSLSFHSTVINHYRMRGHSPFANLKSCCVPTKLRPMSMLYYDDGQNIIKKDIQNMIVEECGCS
# A/B13-39 = target: T2, A/B13-39; experiment: Biacore blocking: 100 nM antibody + diluted conditioned medium (CM) of the ligand over ActRIB-Fc surface
# T2 construct: also called Activin A 13/39 B
# T2 activin A/B chimeric subunit: T1 sequence with K13R, K14Q, V18I, S19D, K21R, D22L, S33T, H36Y, A37G
# A/B82-107 = target: T3, A/B82-107; experiment: as above
# T3 activin A/B chimeric subunit: T1 sequence with V82I, R87S, P88T, Y94F, G97E, Q98Y, I101V, K103R, I105V, Q106P
# [2] = target: T1, recombinant human activin A (mature); experiment: BIAcore blocking assay, 1 nM activin A; competitor rhActivin RIB/Fc chimera on chip
# Protocol: (§1) Blocking assays were conducted on immobilized recombinant human activin RIB-Fc chimera surfaces, recombinant human activin RIIB-Fc chimera surfaces, and recombinant human RIIA-Fc chimera recombinant surfaces, as described in Example 5. Monoclonal antibodies A1, A2, AKA1, and AKA2 on each chimera surface were incubated with 1 nM activin A, and the relative binding response (%) was measured.
# [3] = target: T1, recombinant human activin A (mature); experiment: Biacore: 1 nM Activin A + sample over rhActivin RIIB/Fc Chimera surface; rising ('carry on') curve
# Protocol: as §1
# activin B = target: T4, activin B (UniProt P09529 293-407); experiment: affinity analysis of Example 15 (antibody immobilized on a surface)
# T4 construct: Bought (R & D Systems)
# T4 sequence (looked up): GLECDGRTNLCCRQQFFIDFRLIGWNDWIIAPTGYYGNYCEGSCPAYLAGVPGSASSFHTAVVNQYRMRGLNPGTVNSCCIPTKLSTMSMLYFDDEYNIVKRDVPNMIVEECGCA
# [4] = target: T1, recombinant human activin A (mature); experiment: cell-based or functional assay
# [5] = target: T1, recombinant human activin A (mature); experiment: affinity analysis of Example 15 (method of the KD not given)
# BMP4 = target: T5, BMP4 (UniProt P12644 293-408); experiment: BIAcore, antibody pre-incubated with ligand, ActRIIB/Fc on chip
# T5 construct: Bought
# T5 sequence (looked up): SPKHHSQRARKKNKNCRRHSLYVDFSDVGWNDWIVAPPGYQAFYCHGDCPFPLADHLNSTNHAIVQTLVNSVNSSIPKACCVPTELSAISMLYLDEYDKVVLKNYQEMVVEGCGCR
# Protocol: (§2) These assays were performed using BlAcore® technology, to determine the selectivity of binding of antibodies A1, A2 and A3 to various activins and other TGF-β family members, including activin A, activin B, activin AB, inhibin A, GDF-8, GDF-11, TGF-β-1, TGF-β-3, and BMP4 (all from R & D Systems). […] Because BlAcore assays detect changes in the refractive index, the difference between the response detected with injection over the immobilized receptor surfaces compared with the response detected with injection over the control surface in the absence of any antibody represents the actual binding of the various ligands to the receptor. With pre-incubation of antibodies and activin and TGF-β molecules, a change (increase or decrease) in binding response indicates antibody binding to the TGFβ family of molecules. The antibodies all bound to activin A but not to activin B, GDF-8, GDF-11, TGF-β-1, TGF-β-3, and BMP4, thus indicating specificity for activin A.
# TGF-β-1 = target: T6, TGF-β-1 (UniProt P01137 279-390); experiment: as above
# T6 construct: Bought
# T6 sequence (P01137 279-390 limits assumed): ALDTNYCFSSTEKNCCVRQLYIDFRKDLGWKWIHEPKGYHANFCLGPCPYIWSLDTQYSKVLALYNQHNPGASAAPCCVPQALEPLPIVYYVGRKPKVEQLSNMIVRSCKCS
# Protocol: as §2
# GDF-8 = target: T7, GDF-8 (UniProt O14793 267-375); experiment: as above
# T7 construct: Bought
# T7 sequence (looked up): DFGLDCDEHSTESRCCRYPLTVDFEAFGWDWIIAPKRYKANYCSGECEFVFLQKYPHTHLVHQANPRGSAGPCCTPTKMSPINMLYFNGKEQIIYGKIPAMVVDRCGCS
# Protocol: as §2
# TGF-β-3 = target: T8, TGF-β-3 (UniProt P10600 301-412); experiment: as above
# T8 construct: Bought
# T8 sequence (looked up): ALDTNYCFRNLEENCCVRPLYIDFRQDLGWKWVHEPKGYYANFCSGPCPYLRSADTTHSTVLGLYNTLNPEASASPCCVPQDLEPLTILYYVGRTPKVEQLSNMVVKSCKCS
# Protocol: as §2
# GDF-11 = target: T9, GDF-11 (UniProt O95390 299-407); experiment: as above
# T9 construct: Bought
# T9 sequence (looked up): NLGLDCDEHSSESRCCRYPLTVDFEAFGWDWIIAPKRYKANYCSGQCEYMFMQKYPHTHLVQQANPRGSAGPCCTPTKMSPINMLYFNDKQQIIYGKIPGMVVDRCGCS
# Protocol: as §2
# [6] = target: T1, recombinant human activin A (mature); experiment: KinExA solution equilibrium, activin A-coated beads
# Protocol: Solution-based equilibrium-binding assays using KinExA™ technology (Sapidyne Instruments, Inc.) were used to determine the dissociation equilibrium (KD) of activin A binding to antibody molecules. This solution-based assay is considered to be more sensitive than the BIAcore assay in some instances. Reacti-Gel™ 6× was pre-coated with about 50 μg/ml activin A overnight, and then blocked with BSA. 30 pM and 100 pM of antibody samples were incubated with various concentrations (0.5 pM to 5 nM) of activin A in sample buffer at room temperature for 8 hours before being run through the activin A-coated beads. The amount of the bead-bound antibody was quantified by fluorescent (Cy5) labeled goat anti-human-Fc antibody at 1 mg/ml in superblock. The binding signal was proportional to the concentration of free antibody at equilibrium with a given activin A concentration. KD was obtained from the nonlinear regression of the competition curves using a dual-curve one-site homogeneous binding model provided in the KinEx ATM software (Sapidyne Instruments, Inc.). […] A2 and A3 bound to activin A at ˜15 pM and ˜8 pM, respectively.
# [7] = target: T1, recombinant human activin A (mature); experiment: Biacore blocking: 1 nM Activin A + antibody over rhActRIB-Fc chimera surface. No unit in the drawn table; M by Table 7, which prints this value rounded as 0.18 nM
binder,measurement,setting,value
B1,binding result,[1],binds
same,binding result,A/B13-39,binds
same,binding result,A/B82-107,no binding (tested: 100 nM)
B2,binding result,[1],binds
same,binding result,A/B13-39,binds
same,binding result,A/B82-107,binds
B3,binding result,[1],binds
same,binding result,A/B13-39,binds
same,binding result,A/B82-107,binds
B4,binding result,[1],binds
same,binding result,A/B13-39,binds
same,binding result,A/B82-107,binds
B5,binding result,[1],binds
same,binding result,A/B13-39,no binding (tested: 100 nM)
same,binding result,A/B82-107,binds
B6,EC50,[2],0.18 nM
same,EC50 (read off the curve),[3],~1 nM
same,binding result,A/B13-39,binds
same,binding result,activin B,no binding
same,"Cell IC50 (nM); luciferase activity of C2C12/pMARE reporter cells, activin A fixed at 4 nM",[4],< 3 nM
same,Kd,[5],~0.025 nM
same,binding result,BMP4,no binding
same,binding result,TGF-β-1,no binding
same,binding result,GDF-8,no binding
same,binding result,TGF-β-3,no binding
same,binding result,GDF-11,no binding
same,Kd,[6],~0.015 nM
same,EC50,[7],0.177 nM
B7,binding result,A/B13-39,binds
same,binding result,A/B82-107,no binding (tested: 100 nM)
same,binding result,activin B,no binding
same,"Cell IC50 (nM); luciferase activity of C2C12/pMARE reporter cells, activin A fixed at 4 nM",[4],< 3 nM
same,Kd,[5],~0.011 nM
same,binding result,BMP4,no binding
same,binding result,TGF-β-1,no binding
same,binding result,GDF-8,no binding
same,binding result,TGF-β-3,no binding
same,binding result,GDF-11,no binding
same,Kd,[6],~0.008 nM
B8,binding result,A/B13-39,binds
same,binding result,A/B82-107,no binding (tested: 100 nM)
B9,binding result,[1],binds
same,binding result,A/B13-39,binds
same,binding result,A/B82-107,binds
